Assay results as given in the supplement of paper PMC10567573.

B1: KIAA0774 (parent)
chain: FEDEVKRLGWQQQAELQELEERLQ
B2: SCARA5 (parent)
chain: VTEDLRLKDWEHSIALRNISLAKG

Variants of: B1
Experiment: protein stability index of a GFP-peptide fusion (GPS, HEK-293T) (PSI 1-6); higher = more stable
Details: c terminus: a fixed tail appended
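Note: lentivirally expressed fusions sorted by FACS into six bins by GFP to DsRed ratio, PSI derived from sequencing read proportions per bin multiplied by bin number.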

| Variant | protein stability index |
| --- | --- |
| E20Y | 3.71 |
| E20Q | 3.9 |
| E20T | 3.53 |
| E20S | 4.49 |
| E20R | 3.87 |
| E20V | 3.49 |
| E20W | 3.05 |
| E21H | 4.41 |
| E21Q | 4.67 |
| E21M | 4.32 |
| E21S | 4.17 |
| E21I | 3.79 |
| E21F | 4.07 |
| E21C | 4.38 |
| E21G | 4.76 |
| E21T | 4.69 |
| E21Y | 3.88 |
| E21N | 3.17 |
| E21D | 4.27 |
| E21W | 2.91 |
| E21L | 4.71 |

| Variant | protein stability index |
| --- | --- |
| E21V | 4.14 |
| E21R | 4.46 |
| E21A | 4.69 |
| E21K | 4.76 |
| E21P | 4.51 |
| L23Q | 4.05 |
| L23Y | 4.51 |
| L23V | 4.65 |
| L23H | 4.53 |
| L23A | 4.08 |
| L23N | 4.42 |
| L23E | 4.65 |
| L23W | 3.88 |
| L23R | 4.58 |
| L23K | 4.16 |
| L23C | 4.14 |
| L23F | 4.09 |
| L23S | 4.91 |
| L23G | 4.58 |
| L23D | 5.21 |
| L23T | 4.84 |

| Variant | protein stability index |
| --- | --- |
| L23I | 3.97 |
| L23P | 5.48 |
| L23M | 4.03 |
| Q24P | 4.96 |
| Q24N | 4.48 |
| Q24T | 3.99 |
| Q24H | 3.93 |
| Q24R | 4.14 |
| Q24K | 4.73 |
| Q24E | 3.8 |
| Q24I | 3.41 |
| Q24F | 3.28 |
| Q24A | 3.81 |
| Q24Y | 3.82 |
| Q24W | 3.49 |
| Q24C | 4.22 |
| Q24S | 4.01 |
| Q24M | 3.92 |
| Q24G | 4.62 |
| Q24D | 3.98 |
| Q24V | 3.12 |

| Variant | protein stability index |
| --- | --- |
| Q24L | 3.48 |
| R22I | 4.06 |
| R22G | 5.26 |
| R22T | 4.83 |
| R22Y | 4.24 |
| R22C | 4.48 |
| R22E | 5.78 |
| R22P | 5.33 |
| R22K | 3.85 |
| R22H | 4.88 |
| R22A | 4.99 |
| R22S | 5.01 |
| R22F | 4.62 |
| R22Q | 4.95 |
| R22L | 4.13 |
| R22N | 5.69 |
| R22V | 3.77 |
| R22W | 4.31 |
| R22D | 5.9 |
| R22M | 4.04 |

Variants of: B2
Experiment: as above
Details: c terminus: a fixed tail appended

| Variant | protein stability index |
| --- | --- |
| H12V | 2.44 |
| H12A | 3.2 |
| H12G | 3.63 |
| H12P | 3.29 |
| H12F | 2.28 |
| H12I | 2.4 |
| H12S | 3.88 |
| H12D | 3.75 |
| H12K | 3.61 |
| H12M | 2.77 |
| H12W | 2.25 |
| H12T | 3.51 |
| H12E | 3.84 |
| H12L | 2.38 |
| H12R | 3.51 |
| H12Q | 3.43 |
| H12C | 2.62 |
| H12N | 3.7 |
| H12Y | 2.76 |
| E11V | 1.8 |
| E11I | 1.91 |
| E11D | 3.33 |
| E11K | 3.3 |
| E11W | 2.55 |
| E11P | 2.92 |
| E11S | 2.98 |

| Variant | protein stability index |
| --- | --- |
| E11L | 2.74 |
| E11A | 2.51 |
| E11Q | 3.16 |
| E11G | 2.87 |
| E11R | 2.91 |
| E11T | 2.75 |
| E11M | 2.46 |
| E11Y | 2.57 |
| E11C | 2.47 |
| E11N | 3.56 |
| E11H | 2.72 |
| E11F | 2.24 |
| L7G | 3.67 |
| L7H | 3.69 |
| L7Y | 3.2 |
| L7Q | 3.63 |
| L7C | 3.39 |
| L7S | 3.84 |
| L7P | 3.89 |
| L7A | 3.35 |
| L7F | 3.75 |
| L7E | 4.21 |
| L7M | 3.45 |
| L7I | 3.13 |
| L7W | 2.98 |
| L7D | 3.89 |

| Variant | protein stability index |
| --- | --- |
| L7N | 3.83 |
| L7K | 3.91 |
| L7V | 3.71 |
| L7R | 2.81 |
| L7T | 3.39 |
| L5Q | 3.73 |
| L5S | 3.89 |
| L5A | 3.92 |
| L5E | 4.19 |
| L5P | 3.77 |
| L5M | 3.46 |
| L5D | 4.14 |
| L5R | 3.74 |
| L5V | 3.65 |
| L5G | 3.93 |
| L5I | 3.63 |
| L5H | 3.91 |
| L5T | 3.68 |
| L5C | 3.34 |
| L5N | 3.83 |
| L5Y | 3.34 |
| L5F | 2.97 |
| L5K | 4.14 |
| L5W | 3.35 |
| T2C | 3.12 |
| T2K | 3.65 |

| Variant | protein stability index |
| --- | --- |
| T2Q | 3.58 |
| T2V | 3.48 |
| T2S | 3.11 |
| T2D | 3.8 |
| T2E | 4.15 |
| T2R | 3.21 |
| T2Y | 3.17 |
| T2F | 2.61 |
| T2W | 2.46 |
| T2A | 3.21 |
| T2M | 3.38 |
| T2N | 3.85 |
| T2H | 3.52 |
| T2I | 2.5 |
| T2P | 3.69 |
| T2G | 3.26 |
| T2L | 2.49 |
| K8Q | 2.91 |
| K8L | 3.04 |
| K8T | 3.27 |
| K8I | 2.87 |
| K8S | 3.28 |
| K8C | 3.25 |
| K8N | 3.48 |
| K8A | 3.43 |
| K8V | 2.82 |

| Variant | protein stability index |
| --- | --- |
| K8P | 3.48 |
| K8M | 2.77 |
| K8G | 3.18 |
| K8H | 3.44 |
| K8F | 2.85 |
| K8E | 3.49 |
| K8Y | 2.83 |
| K8D | 3.62 |
| K8R | 3.11 |
| K8W | 2.57 |
| E3Y | 2.44 |
| E3A | 1.74 |
| E3M | 2.75 |
| E3K | 3 |
| E3T | 2.71 |
| E3F | 1.85 |
| E3N | 3.03 |
| E3I | 2.26 |
| E3S | 3.16 |
| E3G | 2.94 |
| E3D | 3.68 |
| E3R | 2.96 |
| E3H | 3.03 |
| E3Q | 2.63 |
| E3P | 3.39 |
| E3V | 1.69 |

| Variant | protein stability index |
| --- | --- |
| E3L | 1.37 |
| E3W | 1.58 |
| E3C | 2.25 |
| V1Y | 2.83 |
| V1Q | 4.04 |
| V1M | 3.5 |
| V1K | 3.34 |
| V1I | 3.54 |
| V1R | 3.39 |
| V1E | 3.98 |
| V1T | 3.89 |
| V1L | 3.26 |
| V1P | 3.88 |
| V1S | 3.74 |
| V1G | 3.15 |
| V1H | 3.89 |
| V1D | 3.75 |
| V1N | 3.98 |
| V1F | 2.81 |
| V1W | 3.42 |
| V1A | 3.77 |
| V1C | 2.72 |
| S13D | 3.65 |
| S13T | 3.41 |
| S13K | 3.23 |
| S13E | 3.58 |

| Variant | protein stability index |
| --- | --- |
| S13G | 3.01 |
| S13W | 2.57 |
| S13R | 3.4 |
| S13N | 2.93 |
| S13I | 2.85 |
| S13V | 3.37 |
| S13F | 2.64 |
| S13A | 3.37 |
| S13H | 3.1 |
| S13Y | 2.88 |
| S13Q | 3.68 |
| S13C | 3.08 |
| S13L | 2.93 |
| S13P | 3.25 |
| S13M | 2.81 |
| W10S | 4.39 |
| W10C | 4.11 |
| W10A | 4.28 |
| W10P | 4.41 |
| W10I | 3.41 |
| W10R | 4.45 |
| W10E | 4.62 |
| W10T | 4.26 |
| W10H | 4.37 |
| W10D | 4.67 |
| W10Y | 3.62 |

| Variant | protein stability index |
| --- | --- |
| W10K | 4.22 |
| W10V | 4.14 |
| W10F | 3.12 |
| W10M | 3.67 |
| W10N | 4.26 |
| W10L | 3.55 |
| W10Q | 4.29 |
| W10G | 4.63 |
| I14A | 4.04 |
| I14E | 4.03 |
| I14C | 3.26 |
| I14D | 4.26 |
| D9S | 3.17 |
| D9W | 2.22 |
| D9E | 3.17 |
| D9Y | 2.69 |
| D9H | 2.71 |
| D9F | 2.44 |
| D9I | 2.27 |
| D9R | 3.14 |
| D9T | 3.18 |
| D9Q | 3.31 |
| D9P | 3.37 |
| D9L | 2.64 |
| D9V | 3.01 |
| D9G | 2.29 |

| Variant | protein stability index |
| --- | --- |
| D9N | 3.12 |
| D9A | 2.94 |
| D9K | 2.82 |
| D9C | 3.09 |
| D9M | 1.96 |
| R6T | 3.75 |
| R6Q | 3.79 |
| R6F | 3.56 |
| R6W | 2.62 |
| R6P | 3.26 |
| R6S | 3.27 |
| R6D | 3.73 |
| R6K | 3.66 |
| R6N | 3.22 |
| R6Y | 2.85 |
| R6V | 3.95 |
| R6E | 3.58 |
| R6H | 3.62 |
| R6L | 3.29 |
| R6C | 3.86 |
| R6I | 3.15 |
| R6M | 2.99 |
| R6A | 3.63 |
| R6G | 3.53 |
| D4M | 2.45 |
| D4W | 2.05 |

| Variant | protein stability index |
| --- | --- |
| D4N | 3.33 |
| D4T | 3.03 |
| D4A | 2.87 |
| D4C | 2.53 |
| D4E | 3.45 |
| D4Q | 3.42 |
| D4H | 3.43 |
| D4R | 3.16 |
| D4I | 2.35 |
| D4S | 2.76 |
| D4V | 2.81 |
| D4K | 2.61 |
| D4P | 3.41 |
| D4L | 2.26 |
| D4Y | 2.01 |
| D4F | 2.03 |
| D4G | 3.04 |
